Experimental data taken from patent US20230165970A1, “COMPOSITIONS AND METHODS FOR THE TREATMENT OF BACTERIAL INFECTIONS” (priority 2017, published 2023).

Assays:
Assay in all cases: MIC assay (broth microdilution, RPMI + 5% LB)
Type in all cases: cell-based
Escherichia coli BW25113 = details: assay media RPMI A; for MIC Ec BW + FBS: 50% heat-inactivated FBS
[1] = tested on: Escherichia coli BW25113 + pUC18-mcr-1; details: assay media RPMI A
Excerpt: An mcr-1 expression plasmid was constructed (GenScript; Piscataway, N.J.) using the pUC18 high copy number plasmid (Yanisch-Perron, et al., 1985). A 1649-bp fragment was synthesized containing, in order from 5′ to 3′: EcoR1 restriction site (5′-GAATTC-3), a ribosomal binding site (5′-AGGAGG-3′), a 5-bp native start codon upstream sequence (5′-TTCTC-3′) from the mcr-1-bearing plasmid pHNSHP45 (Liu, Y Y, et al., 2015; GenBank Accession #KP347127), the 1626-bp mcr-1 open reading frame with stop codon (“orf00073” of GenBank Accession #KP347127), and finally an Xba1 restriction site sequence (5′-TCTAGA-3′). […] The pUC18-mcr-1 plasmid was transformed into chemically-competent E. coli BW25113 (Coli Genetic Stock Center #7636) as described previously (Chung, et al., PNAS. 1989), recovered for 1 h shaking at 37° C. in Super Optimal broth with Catabolite repression (SOC) media and then aliquots were plated on Luria-Bertani (LB) media containing 100 μg/mL of carbenicillin. Putative transformant colonies were then verified in MIC assays.
(§1) Bacterial strains were stored as glycerol stocks at −80° C. prior to culturing on cation-adjusted Mueller-Hinton agar (MHA; BD cat. no. 211438) at 37° C. Antibacterial activity was assessed against a panel consisting of Escherichia coli, Acinetobacter baumannii, Pseudomonas aeruginosa, and Klebsiella pneumoniae strains (see Table 2).
Briefly, stock solutions of all antibacterial agents were prepared fresh in appropriate solvents (i.e. PBS, pH 7.4. DMSO, DI, etc.). Stock concentrations were made at 50× the highest final assay concentration and serially diluted 2-fold, 8 or 12 times in a 96-well PCR plate (VWR cat. no. 83007-374). Bacterial cell suspensions generated from MHA plate cultures were prepared in 0.85% saline and adjusted to ˜0.1 OD600 nm. […] Later, conjugates 16 and 17, and 20-25 were evaluated in RPMI 1640 medium (+) L-glutamine, (+) sodium bicarbonate, pH 7.4 (“RPMI B”; Gibco, cat. no. 11875-085) as has been described as a more physiologically-relevant media for susceptibility testing of antibacterial compounds. […]

[2] = tested on: Escherichia coli ATCC BAA-2469; details: assay media RPMI A
Experimental: as §1
(§2) Briefly, stock solutions of all antibacterial agents were prepared fresh in appropriate solvents (i.e. PBS, pH 7.4. DMSO, DI, etc.). Stock concentrations were made at 50× the highest final assay concentration and serially diluted 2-fold, 8 or 12 times in a 96-well PCR plate (VWR cat. no. 83007-374). Bacterial cell suspensions generated from MHA plate cultures were prepared in 0.85% saline and adjusted to ˜0.1 OD600 nm. […] Dorschner R A et al., The mammalian ionic environment dictates microbial susceptibility to antimicrobial defense peptides. FASEB J. 20(1):35-42 (2017). Ninety-eight microliters of each cell suspension in MHB were added to test wells in a 96-well assay plate (Costar cat. no. 3370). A Beckman Multimek 96 liquid handling robot was used to dispense 2 μL of each 50× stock compound into the plate containing 98 μL of each strain in MHB (2% final solvent concentration). E. coli strains BW25113 and ATCC 25922 were run in the presence and absence of 50% heat-inactivated fetal bovine serum (FBS; Sigma, cat. no. F4135-100 mL). Plates were mixed by shaking then incubated at 37° C. overnight (16-20 h).

[3] = tested on: Acinetobacter baumannii AB5075; details: assay media RPMI A
Experimental: as §1, §2

[4] = tested on: Acinetobacter baumannii ATCC 19606; details: assay media RPMI A
Experimental: as §1, §2

[5] = tested on: Escherichia coli ATCC 25922; details: assay media RPMI A; for MIC Ec 25922 + FBS: 50% heat-inactivated FBS
[6] = tested on: Escherichia coli BW25113 4X-12 (COL-R; PmrB-Leu10Pro); details: assay media RPMI A
Experimental: as §1
(§3) Briefly, stock solutions of all antibacterial agents were prepared fresh in appropriate solvents (i.e. PBS, pH 7.4. DMSO, DI, etc.). Stock concentrations were made at 50× the highest final assay concentration and serially diluted 2-fold, 8 or 12 times in a 96-well PCR plate (VWR cat. no. 83007-374). Bacterial cell suspensions generated from MHA plate cultures were prepared in 0.85% saline and adjusted to ˜0.1 OD600 nm. Next, cell suspensions were diluted 1:200 in RPMI containing 5% Luria Broth (LB) to improve bacterial growth (BD Difco, cat. no. 244620) to a concentration of ˜5×10^5 CFU (colony-forming units)/mL. […] Later, conjugates 16 and 17, and 20-25 were evaluated in RPMI 1640 medium (+) L-glutamine, (+) sodium bicarbonate, pH 7.4 (“RPMI B”; Gibco, cat. no. 11875-085) as has been described as a more physiologically-relevant media for susceptibility testing of antibacterial compounds. Dorschner R A et al., The mammalian ionic environment dictates microbial susceptibility to antimicrobial defense peptides. FASEB J. 20(1):35-42 […]. Ninety-eight microliters of each cell suspension in MHB were added to test wells in a 96-well assay plate (Costar cat. no. 3370). A Beckman Multimek 96 liquid handling robot was used to dispense 2 μL of each 50× stock compound into the plate containing 98 μL of each strain in MHB (2% final solvent concentration). E. coli strains BW25113 and ATCC 25922 were run in the presence and absence of 50% heat-inactivated fetal bovine serum (FBS; Sigma, cat. no. F4135-100 mL). Plates were mixed by shaking then incubated at 37° C. overnight (16-20 h).

[7] = tested on: Pseudomonas aeruginosa PAO1; details: assay media RPMI A
Experimental: as §1, §3

[8] = tested on: Acinetobacter baumannii ATCC 17978; details: assay media RPMI A
Experimental: as §1, §3

[9] = tested on: Pseudomonas aeruginosa ATCC 27853; details: assay media RPMI A
Experimental: as §1, §3

| Molecule | MIC Ec BW (Escherichia coli BW25113) | MIC Ec BW + FBS (Escherichia coli BW25113) | MIC Ec BW (mcr-1) [1] | MIC Ec 2469 [2] | MIC Ab AB5075 [3] | MIC Ab 19606 [4] | MIC Ec 25922 [5] | MIC Ec 25922 + FBS [5] | MIC Ec BW 4X-12 (COL-R) [6] | MIC Pa PAO1 [7] | MIC Ab 17978 [8] | MIC Pa 27853 [9] |
| --- | --- | --- | --- | --- | --- | --- | --- | --- | --- | --- | --- | --- |
| Conjugate 4 (conjugate, cyclised or stapled) PRGPTIKPCPPCKCPAPNLLGGPSVFIFPPKIKDVLMISLSPIVTCVVVDVSEDDPDVQISWFVNNVEVHTAQTQTHREDYNSTLRVVSALPIQHQDWMSGKEFKCKVNNKDLPAPIERTISKPKGSVRAPQVYVLPPPEEEMTKKQVTLTCMVTDFMPEDIYVEWTNNGKTELNYKNTEPVLDSDGSYFMYSKLRVEKKNWVERNSYSCSVVHEGLHNHHTTKSFSRTPGKHHHHHH | 32 µg/mL | 32 µg/mL | >128 µg/mL | >128 µg/mL | 32 µg/mL | 32 µg/mL | >128 µg/mL | 64 µg/mL | >128 µg/mL | 16 µg/mL | – | – |
| Conjugate 15 (conjugate, cyclised or stapled) PRGPTIKPCPPCKCPAPNLLGGPSVFIFPPKIKDVLMISLSPIVTCVVVDVSEDDPDVQISWFVNNVEVHTAQTQTHREDYNSTLRVVSALPIQHQDWMSGKEFKCKVNNKDLPAPIERTISKPKGSVRAPQVYVLPPPEEEMTKKQVTLTCMVTDFMPEDIYVEWTNNGKTELNYKNTEPVLDSDGSYFMYSKLRVEKKNWVERNSYSCSVVHEGLHNHHTTKSFSRTPGKHHHHHH | >128 µg/mL | >128 µg/mL | >128 µg/mL | >128 µg/mL | >128 µg/mL | >128 µg/mL | >128 µg/mL | >128 µg/mL | >128 µg/mL | 16 µg/mL | – | – |
| Conjugate 26: "Conjugate of m-IgG2a(His)6 Fc-3 (Int-13)"; SEQ ID NO: 6, procedure uses Int-10, DAR=2/Fc dimer (conjugate, conjugated small molecule Int-13, DAR 2) PRGPTIKPCPPCKCPAPNLLGGPSVFIFPPKIKDVLMISLSPIVTCVVVDVSEDDPDVQISWFVNNVEVHTAQTQTHREDYNSTLRVVSALPIQHQDWMSGKEFKCKVNNKDLPAPIERTISKPKGSVRAPQVYVLPPPEEEMTKKQVTLTCMVTDFMPEDIYVEWTNNGKTELNYKNTEPVLDSDGSYFMYSKLRVEKKNWVERNSYSCSVVHEGLHNHHTTKSFSRTPGKHHHHHH | 16 µg/mL | 32 µg/mL | >128 µg/mL | 32 µg/mL | 32 µg/mL | 128 µg/mL | >128 µg/mL | 128 µg/mL | >128 µg/mL | 64 µg/mL | 64 µg/mL | 16 µg/mL |
